# T1: monkey C5-mmh (monkey, UniProt P01031 19-1676 (human entry), limits assumed)
# T1 construct: recombinant, with C-terminal myc-myc-hexahistidine tag
# T1 chain: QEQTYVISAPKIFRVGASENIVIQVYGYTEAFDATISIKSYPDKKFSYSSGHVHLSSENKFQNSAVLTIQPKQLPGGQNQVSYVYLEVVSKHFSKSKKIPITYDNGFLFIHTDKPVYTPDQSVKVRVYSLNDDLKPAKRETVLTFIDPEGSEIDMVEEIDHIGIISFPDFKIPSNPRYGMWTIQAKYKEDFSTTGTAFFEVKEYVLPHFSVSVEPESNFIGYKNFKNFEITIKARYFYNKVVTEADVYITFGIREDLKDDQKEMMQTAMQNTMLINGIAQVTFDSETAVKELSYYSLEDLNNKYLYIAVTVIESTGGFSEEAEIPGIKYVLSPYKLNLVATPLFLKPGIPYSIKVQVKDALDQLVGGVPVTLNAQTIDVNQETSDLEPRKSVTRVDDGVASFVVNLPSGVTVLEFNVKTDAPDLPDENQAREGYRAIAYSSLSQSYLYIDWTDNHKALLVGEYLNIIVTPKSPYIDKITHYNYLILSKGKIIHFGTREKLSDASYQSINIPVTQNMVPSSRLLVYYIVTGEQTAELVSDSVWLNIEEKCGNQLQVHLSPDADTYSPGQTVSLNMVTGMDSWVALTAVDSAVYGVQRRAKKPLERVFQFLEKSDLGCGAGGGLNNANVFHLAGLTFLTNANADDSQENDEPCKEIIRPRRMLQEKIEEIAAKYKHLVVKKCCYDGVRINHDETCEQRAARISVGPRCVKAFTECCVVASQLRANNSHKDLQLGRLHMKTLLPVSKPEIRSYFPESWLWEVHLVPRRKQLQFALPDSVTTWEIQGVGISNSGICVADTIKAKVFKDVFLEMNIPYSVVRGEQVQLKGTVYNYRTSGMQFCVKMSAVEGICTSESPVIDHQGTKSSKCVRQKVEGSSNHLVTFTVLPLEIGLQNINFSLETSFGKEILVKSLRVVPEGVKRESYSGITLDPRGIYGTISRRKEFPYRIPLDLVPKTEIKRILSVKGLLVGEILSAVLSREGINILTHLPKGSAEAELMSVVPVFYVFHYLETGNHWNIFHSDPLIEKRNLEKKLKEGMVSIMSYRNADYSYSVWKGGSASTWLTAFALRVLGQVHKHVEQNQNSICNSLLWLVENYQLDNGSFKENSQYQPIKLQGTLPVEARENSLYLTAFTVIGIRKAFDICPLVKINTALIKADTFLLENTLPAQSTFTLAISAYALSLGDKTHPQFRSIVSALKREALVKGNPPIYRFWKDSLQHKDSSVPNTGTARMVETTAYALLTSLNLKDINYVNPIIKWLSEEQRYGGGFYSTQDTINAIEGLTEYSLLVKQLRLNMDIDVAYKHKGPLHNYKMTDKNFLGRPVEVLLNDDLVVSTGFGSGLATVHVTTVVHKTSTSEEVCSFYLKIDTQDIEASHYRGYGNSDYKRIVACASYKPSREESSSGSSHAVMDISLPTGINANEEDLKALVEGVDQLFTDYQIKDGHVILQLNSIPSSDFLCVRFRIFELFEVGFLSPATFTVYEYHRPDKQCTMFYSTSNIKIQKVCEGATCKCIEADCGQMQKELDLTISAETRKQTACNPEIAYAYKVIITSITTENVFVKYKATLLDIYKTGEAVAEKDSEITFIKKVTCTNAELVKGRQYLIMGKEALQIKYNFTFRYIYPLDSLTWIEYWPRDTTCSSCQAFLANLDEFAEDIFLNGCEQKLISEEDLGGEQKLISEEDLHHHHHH
# Key:
# human C5 [1] = molecular target: T2, human C5 (human, UniProt P01031 19-1676); assay: cell-based or functional assay
# African green monkey C5 [2] = molecular target: T3, African green monkey C5 (African green monkey); assay: cell-based or functional assay
# human C5 R885H-mmh [3] = molecular target: T4, human C5 R885H-mmh (human, UniProt P01031 19-1676); assay: cell-based or functional assay
# human C5 R885C-mmh [4] = molecular target: T5, human C5 R885C-mmh (human, UniProt P01031 19-1676); assay: cell-based or functional assay
# human C5 [5] = molecular target: T2, human C5; assay: cell-based or functional assay; remark: listed apart in the source
# African green monkey C5 [6] = molecular target: T3, African green monkey C5; assay: cell-based or functional assay; remark: listed apart in the source
# Cynomolgus monkey C5 = Cynomolgus monkey C5 (cynomolgus monkey, UniProt A0A2K5U1T1 19-1676); assay: cell-based or functional assay
# human C5 [7] = molecular target: T2, human C5; assay: SPR (Biacore), mAb captured, dissociation of human C5 at pH7.4 vs pH6.0, 37°C
# Method in brief: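 Anti-C5 mAbs (human IgG4 Fc) captured on an amine-coupled mouse anti-human Fc surface; recombinant C5 dissociation followed by Biacore T200 in PBS-T (0.01M phosphate, 0.15M NaCl, 0.05% Tween-20) at pH7.4 or pH6.0. Dissociative half-life (t½) calculated from kd.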
# monkey C5-mmh [8] = molecular target: T1, monkey C5-mmh; assay: SPR (Biacore), mAb captured, dissociation of monkey C5 at pH7.4 vs pH6.0, 25°C
# monkey C5-mmh [9] = molecular target: T1, monkey C5-mmh; assay: SPR (Biacore), mAb captured, dissociation of monkey C5 at pH7.4 vs pH6.0, 37°C
# human C5 [10] = molecular target: T2, human C5; assay: cell-based or functional assay; remark: listed apart in the source
# African green monkey C5 [11] = molecular target: T3, African green monkey C5; assay: cell-based or functional assay; remark: listed apart in the source
# human C5 R885H-mmh [12] = molecular target: T4, human C5 R885H-mmh; assay: cell-based or functional assay; remark: listed apart in the source
# human C5 R885C-mmh [13] = molecular target: T5, human C5 R885C-mmh; assay: cell-based or functional assay; remark: listed apart in the source
# human C5 [14] = molecular target: T2, human C5; assay: cell-based or functional assay; remark: listed apart in the source
t½ Ratio pH7.4/pH6.0 (human C5 [7]),"IC50, inhibition of CDC of Daudi cells, 1.66% human serum, 2 nM anti-CD20 antibody (human C5 [10]) [nM]","IC50, inhibition of CDC of Daudi cells, 1.66% African Green monkey serum, 10 nM anti-CD20 antibody (African green monkey C5 [11]) [nM]","IC50, inhibition of CDC of Daudi cells, C5 depleted human serum and 6.6 nM C5 Variant R885H, 7 nM anti-CD20 antibody (human C5 R885H-mmh [12]) [nM]","IC50, inhibition of CDC of Daudi cells, C5 depleted human serum and 6.6 nM C5 Variant R885C, 30 nM anti-CD20 antibody (human C5 R885C-mmh [13]) [nM]","Max % Inhibition of CDC of Daudi cells, 1.66% African Green monkey serum, 10 nM anti-CD20 antibody (African green monkey C5 [11]) [%]",Binder,"Human AP % Max Inhibition, hemolysis assay, 5% NHS (human C5 [14]) [%]","Human AP IC50, hemolysis assay, 5% NHS (human C5 [14]) [nM]","Human CP % Max Inhibition, hemolysis assay, 5% NHS (human C5 [14]) [%]","Human CP IC50, hemolysis assay, 5% NHS (human C5 [14]) [nM]",further results
≤ 0.1,,,,,,"H4H12164P (antibody, human IgG4, V domains shown, H4H: human IgG4 Fc with S108P hinge mutation) VH: EVQLVESGGGLVRSGGSLRLSCAASGFTFNRYAMTWVRQAPGKGLEWVSAISGSGSSTYYTDSVKGRFTISRDNSKNSVDLQMHSLRVEDTAIYYCARGTTVTTGYGMDVWGQGTTVTVSS VL: DIQMTQSPSSLSASVGDRVTFTCQASQDITNSLNWYQQKPGRAPKLLIYDASYLKAGVPSRFSGSGSGTDFTFTISSLQPEDIATYYCQQYDDLPYTFGQGTKLEIK",,,,,"IC50, inhibition of CDC of Daudi cells, 1.66% human serum (human C5 [1]): 2.4 nM; IC50, inhibition of CDC of Daudi cells, 1.66% African Green monkey serum (African green monkey C5 [2]): 5.8 nM; IC50, inhibition of CDC of Daudi cells, C5 depleted human serum and 6.6 nM C5 Variant R885H (human C5 R885H-mmh [3]): 1.8 nM; IC50, inhibition of CDC of Daudi cells, C5 depleted human serum and 6.6 nM C5 Variant R885C (human C5 R885C-mmh [4]): 0.82 nM; Human AP % Max Inhibition, hemolysis assay, NHS (human C5 [5]): 69.7%; Human AP IC50, hemolysis assay, NHS (human C5 [5]): 14.5 nM; Human CP % Max Inhibition, hemolysis assay, NHS (human C5 [5]): 95.9%; Human CP IC50, hemolysis assay, NHS (human C5 [5]): 2.1 nM; AGM AP % Max Inhibition, hemolysis assay, 5% serum (African green monkey C5 [6]): 15.6%; AGM CP % Max Inhibition, hemolysis assay, 5% serum (African green monkey C5 [6]): 85.8%; AGM Serum AP IC50, hemolysis assay, 5% serum (African green monkey C5 [6]): 178 nM; AGM Serum CP IC50, hemolysis assay, 5% serum (African green monkey C5 [6]): 247 nM; Cyno AP % Max Inhibition, hemolysis assay, 5% serum (Cynomolgus monkey C5): 98.7%; Cyno CP % Max Inhibition, hemolysis assay, 5% serum (Cynomolgus monkey C5): 94.7%; Cyno Serum AP IC50, hemolysis assay, 5% serum (Cynomolgus monkey C5): 9.1 nM; Cyno Serum CP IC50, hemolysis assay, 5% serum (Cynomolgus monkey C5): 19.6 nM; t½ Ratio pH7.4/pH6.0 (monkey C5-mmh [8]): 2.9; t½ Ratio pH7.4/pH6.0 (monkey C5-mmh [9]): 1.1"
7.3,3.7,9.7,1.7,1.2,,"H4H12166P2 (antibody, human IgG4, V domains shown, histidine-mutated CDR variant of H4H12166P; human IgG4 (S108P)) VH: QVQLQESGPGLVKPSETLSLTCTVSGDSVSSSYWTWIRQPPGKGLEWIGYIYYSGSSNYNPSLKSRATISVDTSKNQFSLKLSSVTAADTAVYYCAREGNVDTTMIFDYWGQGTLVTVSS VL: AIQMTQSPSSLSASVGDRVTITCRASQGIRNDLGWYQQKPGKAPKLLIYAASSLQSGVPSRFAGRGSGTDFTLTISSLQPEDFATYYCHQDFNYPWTFGQGTKVEIK",81.3,47.8,98.2,15.9,
7.6,3.5,7.9,1.5,0.96,,"H4H12166P4 (antibody, human IgG4, V domains shown, histidine-mutated CDR variant of H4H12166P; human IgG4 (S108P)) VH: QVQLQESGPGLVKPSETLSLTCTVSGDSVSSSYWTWIRQPPGKGLEWIGYIYYSGSSNYNPSLKSRATISVDTSKNQFSLKLSSVTAADTAVYYCAREGNVDTTMIFDYWGQGTLVTVSS VL: AIQMTQSPSSLSASVGDRVTITCRASQGIRNDLGWYQQKPGKAPKLLIYAASSLQSGVPSRFAGRGSGTDFTLTISSLQPEDFATYYCLQDFNYPWHFGQGTKVEIK",77,31.7,98.6,13.2,
8.2,3,9.9,1.3,0.79,,"H4H12166P6 (antibody, human IgG4, V domains shown, histidine-mutated CDR variant of H4H12166P; human IgG4 (S108P)) VH: QVQLQESGPGLVKPSETLSLTCTVSGDSVSSSYWTWIRQPPGKGLEWIGYIYYSGSSNYNPSLKSRATISVDTSKNQFSLKLSSVTAADTAVYYCAREGNVDHTMIFDYWGQGTLVTVSS VL: AIQMTQSPSSLSASVGDRVTITCRASQGIRNDLGWYQQKPGKAPKLLIYAASSLQSGVPSRFAGRGSGTDFTLTISSLQPEDFATYYCLQDFNYPWTFGQGTKVEIK",82.4,28.4,98.1,10.3,
7.6,4.9,> 30,2.1,1.4,75,"H4H12166P5 (antibody, human IgG4, V domains shown, histidine-mutated CDR variant of H4H12166P; human IgG4 (S108P)) VH: QVQLQESGPGLVKPSETLSLTCTVSGDSVSSSYWTWIRQPPGKGLEWIGYIYYSGSSNYNPSLKSRATISVDTSKNQFSLKLSSVTAADTAVYYCAREGNVDTTMIHDYWGQGTLVTVSS VL: AIQMTQSPSSLSASVGDRVTITCRASQGIRNDLGWYQQKPGKAPKLLIYAASSLQSGVPSRFAGRGSGTDFTLTISSLQPEDFATYYCLQDFNYPWTFGQGTKVEIK",77.7,65.5,97.1,14.9,
,,> 30,2.9,1.7,64,"H4H12166P3 (antibody, human IgG4, V domains shown) VH: QVQLQESGPGLVKPSETLSLTCTVSGDSVSSSYWTWIRQPPGKGLEWIGYIYYSGSSNYNPSLKSRATISVDTSKNQFSLKLSSVTAADTAVYYCAREHNVDTTMIFDYWGQGTLVTVSS VL: AIQMTQSPSSLSASVGDRVTITCRASQGIRNDLGWYQQKPGKAPKLLIYAASSLQSGVPSRFAGRGSGTDFTLTISSLQPEDFATYYCLQDFNYPWTFGQGTKVEIK",,,,,

# From patent US20170355757A1 (Regeneron, published 2017)
